Read-outs that look alike come from different tables or passages of the source.
Assays:
[1] = biological target: GMPCPP-stabilized microtubules (bovine brain tubulin, TAMRA-labeled) (bovine) (UniProt Q6B856); experiment: single-molecule TIRF microscopy
[2] = biological target: GMPCPP-stabilized microtubules (bovine brain tubulin, TAMRA-labeled) (bovine) (UniProt Q6B856); experiment: single-molecule TIRF microscopy; remark: listed apart in the source

Sequence of His-EGFP-L-TOG2-S (minimal construct of CLASP2α: short linker region, TOG2 domain and serine-arginine-rich region) (domain or fragment) (O75122 whole entry, the tested form may be a part): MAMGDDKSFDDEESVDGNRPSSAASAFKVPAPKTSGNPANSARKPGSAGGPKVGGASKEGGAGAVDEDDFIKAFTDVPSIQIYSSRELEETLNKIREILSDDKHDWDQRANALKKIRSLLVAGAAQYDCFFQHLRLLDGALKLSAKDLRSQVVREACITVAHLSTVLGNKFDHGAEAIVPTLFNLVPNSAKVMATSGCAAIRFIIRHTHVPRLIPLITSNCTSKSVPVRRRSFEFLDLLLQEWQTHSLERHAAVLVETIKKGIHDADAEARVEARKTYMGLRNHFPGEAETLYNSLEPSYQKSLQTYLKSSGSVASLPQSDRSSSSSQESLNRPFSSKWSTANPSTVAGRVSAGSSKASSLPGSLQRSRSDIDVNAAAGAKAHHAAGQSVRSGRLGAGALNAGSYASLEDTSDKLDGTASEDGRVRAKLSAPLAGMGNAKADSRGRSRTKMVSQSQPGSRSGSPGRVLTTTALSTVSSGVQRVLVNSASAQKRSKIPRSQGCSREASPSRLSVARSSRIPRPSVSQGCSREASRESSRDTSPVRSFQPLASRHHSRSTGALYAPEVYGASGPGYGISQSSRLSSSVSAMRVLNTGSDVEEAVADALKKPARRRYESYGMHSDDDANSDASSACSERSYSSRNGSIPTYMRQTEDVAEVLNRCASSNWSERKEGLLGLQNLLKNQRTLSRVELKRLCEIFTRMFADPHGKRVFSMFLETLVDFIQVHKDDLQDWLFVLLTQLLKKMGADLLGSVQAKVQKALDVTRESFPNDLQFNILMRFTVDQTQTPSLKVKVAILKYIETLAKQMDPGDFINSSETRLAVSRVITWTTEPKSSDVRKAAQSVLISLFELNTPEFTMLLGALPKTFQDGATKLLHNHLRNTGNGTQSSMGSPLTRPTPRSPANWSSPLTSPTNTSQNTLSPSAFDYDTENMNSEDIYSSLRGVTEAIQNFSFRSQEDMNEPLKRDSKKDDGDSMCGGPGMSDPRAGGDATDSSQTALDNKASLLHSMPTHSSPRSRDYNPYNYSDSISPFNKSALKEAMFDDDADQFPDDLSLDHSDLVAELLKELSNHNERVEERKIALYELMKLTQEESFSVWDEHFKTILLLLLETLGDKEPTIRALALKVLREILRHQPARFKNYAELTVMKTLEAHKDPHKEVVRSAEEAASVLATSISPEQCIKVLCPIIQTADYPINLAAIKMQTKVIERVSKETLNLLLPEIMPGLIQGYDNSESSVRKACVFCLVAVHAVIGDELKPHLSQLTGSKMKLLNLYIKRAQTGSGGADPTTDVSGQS

## His-EGFP-L-TOG2-S (minimal construct of CLASP2α: short linker region, TOG2 domain and serine-arginine-rich region) (domain or fragment)
[1]
  mean dwell time on microtubule ends: 0.53 s
[2]
  mean dwell time on microtubule ends: 3.8 s

Source: paper PMC10195879
